The values that follow come from PMC4967826, “Combined structural, biochemical and cellular evidence demonstrates that both FGDF motifs in alphavirus nsP3 are required for efficient replication” (Open Biology, 2016).

The test system of assay [1] is G3BP-1 F15A mutant. The note with it: isothermal titration calorimetry; ref [28]; cited from earlier work. The source says: The importance of the hydrophobic FGDF-binding site of G3BP-1 has been validated in previous binding studies using mutated versions of G3BP in which Phe-33 and Phe-15 were substituted to tryptophan and alanine, respectively. Both Phe-33 and Phe-15 are localized centrally within the hydrophobic binding site that coordinates the phenylalanine residues of the FGDF motif (figure 2b,c).
On the technique in general: In ITC the heat of successive injections is recorded.

In assay [2] the target is nsP3-F3AC of virus SFV-F3AC (Semliki Forest virus).
In assay [3] the target is GFP-nsP3-36-F3AN (Semliki Forest virus). Description: MST.
Assay [4] concerns the target GFP-nsP3-36-F3AC (Semliki Forest virus). Description: MST.
Assay [5] has as its target GFP-nsP3-36-F3ANC (Semliki Forest virus). Description: MST.
For assay [6], the target named is GFP-nsP3-36 (GFP fused to the C-terminal 36 residues of SFV nsP3, C-terminal His tag) (Semliki Forest virus). Put plainly: MST.

With “DSGFSFGSK [nucleoporin (Nup)-derived peptide]”, the “binding affinity to F15A mutant of G3BP-1” value in assay [1] was “five times lower binding affinity”.
In turn, “G3BP-1 (endogenous, BHK cells) (from UniProt A0A9J7JVX0 1-465) (natural protein)” had a G3BP-1 in the IP relative to SFV WT (densitometry) in assay [2] of 49.5%.
With “NTF2-like domain of human G3BP-1 (residues 1-139) (from UniProt Q13283 1-139) (domain or fragment)”, the Kd – broadly, the constant that tells how readily two partners part at equilibrium – is 5.8 µM in assay [3] and 17 µM in assay [5]. Also, the binding constant of the high-affinity binding event in assay [4] came out at 410 nM; in assay [6] it was 150 nM. In addition, the binding constant of the low-affinity binding event in assay [4] amounted to 23 µM; in assay [6], 4.1 µM.
